# From patent US20260070987A1
# Residue numbers refer to the chain shown, from its start. Names and notes keep the numbering of the source.
# B1: equine IgG1 Q311N (antibody, part only; not given: Variable domains, not shown: another chain or arm of the molecule)
# constant: ASTTAPKVFALAPGCGTTSDSTVALGCLVSGYFPEPVKVSWNSGSLTSGVHTFPSVLQSSGFYSLSSMVTVPASTWTSETYICNVVHAASNFKVDKRIEPIPDNHQKVCDMSKCPKCPAPELLGGPSVFIFPPNPKDTLMITRTPEVTCVVVDVSQENPDVKFNWYMDGVEVRTATTRPKEEQFNSTYRVVSVLRIQHNDWLSGKEFKCKVNNQALPQPIERTITKTKGRSQEPQVYVLAPHPDELSKSKVSVTCLVKDFYPPEINIEWQSNGQPELETKYSTTQAQQDSDGSYFLYSKLSVDRNRWQQGTTFTCGVMHEALHNHYTQKNVSKNPGK
# B2: equine IgG1 G426L (antibody, part only; not given: variable domains, not shown: another chain or arm of the molecule)
# constant: B1 constant with N199Q, G316L
# B3: equine IgG1 M428G (antibody, part only; not given: variable domains, not shown: another chain or arm of the molecule)
# constant: B1 constant with N199Q, M318G
# B4: equine IgG1 G426M (antibody, part only; not given: variable domains, not shown: another chain or arm of the molecule)
# constant: B1 constant with N199Q, G316M
# B5: equine IgG1 Q311T (antibody, part only; not given: variable domains, not shown: another chain or arm of the molecule)
# constant: B1 constant with N199T
# B6: equine IgG1 Q311R (antibody, part only; not given: variable domains, not shown: another chain or arm of the molecule)
# constant: B1 constant with N199R
# B7: equine IgG1 D312K (antibody, part only; not given: variable domains, not shown: another chain or arm of the molecule)
# constant: B1 constant with N199Q, D200K
# B8: equine IgG1 D312Y (antibody, part only; not given: variable domains, not shown: another chain or arm of the molecule)
# constant: B1 constant with N199Q, D200Y
# B9: equine IgG1 G426K (antibody, part only; not given: Variable domains, not shown: another chain or arm of the molecule)
# constant: B1 constant with N199Q, G316K
# B10: equine IgG1 M252Y (antibody, part only; not given: variable domains, not shown: another chain or arm of the molecule)
# constant: B1 constant with M140Y, N199Q
# B11: equine IgG1 G426D (antibody, part only; not given: variable domains, not shown: another chain or arm of the molecule)
# constant: B1 constant with N199Q, G316D
# B12: equine IgG1 G426W (antibody, part only; not given: variable domains, not shown: another chain or arm of the molecule)
# constant: B1 constant with N199Q, G316W
# B13: equine IgG1 M428L (antibody, part only; not given: variable domains, not shown: another chain or arm of the molecule)
# constant: B1 constant with N199Q, M318L
# B14: equine IgG1 M428A (antibody, part only; not given: variable domains, not shown: another chain or arm of the molecule)
# constant: B1 constant with N199Q, M318A
# B15: equine IgG1 D312W (antibody, part only; not given: variable domains, not shown: another chain or arm of the molecule)
# constant: B1 constant with N199Q, D200W
# B16: equine IgG1 G426C (antibody, part only; not given: variable domains, not shown: another chain or arm of the molecule)
# constant: B1 constant with N199Q, G316C
# B17: equine IgG1 D312M (antibody, part only; not given: Variable domains, not shown: another chain or arm of the molecule)
# constant: B1 constant with N199Q, D200M
# B18: equine IgG1 D312V (antibody, part only; not given: Variable domains, not shown: another chain or arm of the molecule)
# constant: B1 constant with N199Q, D200V
# B19: equine IgG1 D312C (antibody, part only; not given: variable domains, not shown: another chain or arm of the molecule)
# constant: B1 constant with N199Q, D200C
# B20: equine IgG1 M428T (antibody, part only; not given: variable domains, not shown: another chain or arm of the molecule)
# constant: B1 constant with N199Q, M318T
# B21: equine IgG1 D312A (antibody, part only; not given: variable domains, not shown: another chain or arm of the molecule)
# constant: B1 constant with N199Q, D200A
# B22: equine IgG1 Q311S (antibody, part only; not given: variable domains, not shown: another chain or arm of the molecule)
# constant: B1 constant with N199S
# B23: equine IgG1 M252L (antibody, part only; not given: variable domains, not shown: another chain or arm of the molecule)
# constant: B1 constant with M140L, N199Q
# B24: equine IgG1 G426Q (antibody, part only; not given: variable domains, not shown: another chain or arm of the molecule)
# constant: B1 constant with N199Q, G316Q
# B25: equine IgG1 M428E (antibody, part only; not given: variable domains, not shown: another chain or arm of the molecule)
# constant: B1 constant with N199Q, M318E
# B26: equine IgG1 G426A (antibody, part only; not given: variable domains, not shown: another chain or arm of the molecule)
# constant: B1 constant with N199Q, G316A
# B27: equine IgG1 G426V (antibody, part only; not given: Variable domains, not shown: another chain or arm of the molecule)
# constant: B1 constant with N199Q, G316V
# B28: equine IgG1 G426H (antibody, part only; not given: variable domains, not shown: another chain or arm of the molecule)
# constant: B1 constant with N199Q, G316H
# B29: equine IgG1 G426S (antibody, part only; not given: variable domains, not shown: another chain or arm of the molecule)
# constant: B1 constant with N199Q, G316S
# B30: equine IgG1 M252W (antibody, part only; not given: variable domains, not shown: another chain or arm of the molecule)
# constant: B1 constant with M140W, N199Q
# B31: equine IgG1 D312T (antibody, part only; not given: Variable domains, not shown: another chain or arm of the molecule)
# constant: B1 constant with N199Q, D200T
# B32: equine IgG1 T286A (antibody, part only; not given: Variable domains, not shown: another chain or arm of the molecule)
# constant: B1 constant with T174A, N199Q
# B33: equine IgG1 D312F (antibody, part only; not given: Variable domains, not shown: another chain or arm of the molecule)
# constant: B1 constant with N199Q, D200F
# B34: equine IgG1 G426N (antibody, part only; not given: variable domains, not shown: another chain or arm of the molecule)
# constant: B1 constant with N199Q, G316N
# B35: equine IgG1 G426R (antibody, part only; not given: variable domains, not shown: another chain or arm of the molecule)
# constant: B1 constant with N199Q, G316R
# B36: equine IgG1 M428Q (antibody, part only; not given: Variable domains, not shown: another chain or arm of the molecule)
# constant: B1 constant with N199Q, M318Q
# B37: equine IgG1 G426T (antibody, part only; not given: variable domains, not shown: another chain or arm of the molecule)
# constant: B1 constant with N199Q, G316T
# B38: equine IgG1 M428K (antibody, part only; not given: variable domains, not shown: another chain or arm of the molecule)
# constant: B1 constant with N199Q, M318K
# B39: equine IgG1 Q311Y (antibody, part only; not given: Variable domains, not shown: another chain or arm of the molecule)
# constant: B1 constant with N199Y
# B40: equine IgG1 D312G (antibody, part only; not given: variable domains, not shown: another chain or arm of the molecule)
# constant: B1 constant with N199Q, D200G
# B41: equine IgG1 M252K (antibody, part only; not given: variable domains, not shown: another chain or arm of the molecule)
# constant: B1 constant with M140K, N199Q
# B42: equine IgG1 G426I (antibody, part only; not given: variable domains, not shown: another chain or arm of the molecule)
# constant: B1 constant with N199Q, G316I
# B43: equine IgG1 M428C (antibody, part only; not given: variable domains, not shown: another chain or arm of the molecule)
# constant: B1 constant with N199Q, M318C
# B44: equine IgG1 D312N (antibody, part only; not given: variable domains, not shown: another chain or arm of the molecule)
# constant: B1 constant with N199Q, D200N
# B45: equine IgG1 D312Q (antibody, part only; not given: variable domains, not shown: another chain or arm of the molecule)
# constant: B1 constant with N199Q, D200Q
# B46: equine IgG1 M428N (antibody, part only; not given: Variable domains, not shown: another chain or arm of the molecule)
# constant: B1 constant with N199Q, M318N
# B47: equine IgG1 Q311V (antibody, part only; not given: variable domains, not shown: another chain or arm of the molecule)
# constant: B1 constant with N199V
# B48: equine IgG1 G426F (antibody, part only; not given: variable domains, not shown: another chain or arm of the molecule)
# constant: B1 constant with N199Q, G316F
# B49: equine IgG1 G426E (antibody, part only; not given: Variable domains, not shown: another chain or arm of the molecule)
# constant: B1 constant with N199Q, G316E
# B50: equine IgG1 D312H (antibody, part only; not given: variable domains, not shown: another chain or arm of the molecule)
# constant: B1 constant with N199Q, D200H
# B51: equine IgG1 G426P (antibody, part only; not given: variable domains, not shown: another chain or arm of the molecule)
# constant: B1 constant with N199Q, G316P
# B52: equine IgG1 G426Y (antibody, part only; not given: variable domains, not shown: another chain or arm of the molecule)
# constant: B1 constant with N199Q, G316Y
# B53: equine IgG1 D312P (antibody, part only; not given: variable domains, not shown: another chain or arm of the molecule)
# constant: B1 constant with N199Q, D200P
# B54: equine IgG1 Q311W (antibody, part only; not given: variable domains, not shown: another chain or arm of the molecule)
# constant: B1 constant with N199W
# B55: equine IgG1 M428F (antibody, part only; not given: variable domains, not shown: another chain or arm of the molecule)
# constant: B1 constant with N199Q, M318F
# B56: equine IgG1 D312E (antibody, part only; not given: variable domains, not shown: another chain or arm of the molecule)
# constant: B1 constant with N199Q, D200E
# B57: equine IgG1 M428I (antibody, part only; not given: variable domains, not shown: another chain or arm of the molecule)
# constant: B1 constant with N199Q, M318I
# B58: equine IgG1 M428H (antibody, part only; not given: variable domains, not shown: another chain or arm of the molecule)
# constant: B1 constant with N199Q, M318H
# B59: equine IgG1 T286C (antibody, part only; not given: variable domains, not shown: another chain or arm of the molecule)
# constant: B1 constant with T174C, N199Q
# B60: equine IgG1 D312S (antibody, part only; not given: variable domains, not shown: another chain or arm of the molecule)
# constant: B1 constant with N199Q, D200S
# B61: equine IgG1 D312L (antibody, part only; not given: variable domains, not shown: another chain or arm of the molecule)
# constant: B1 constant with N199Q, D200L
# Molecular target: equine FcRn (large alpha subunit p51) / equine beta-2-microglobulin complex, biotinylated (equine) (UniProt P30441)
# UniProt P30441, sequence (P30441 21-118, one chain of several): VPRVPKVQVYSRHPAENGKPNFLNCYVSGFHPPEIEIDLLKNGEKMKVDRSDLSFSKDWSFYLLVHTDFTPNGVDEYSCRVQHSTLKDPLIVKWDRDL
# Test: SPR (Biacore), pH 6
row,Binder,Kd
1,B1,24.3 nM
2,B2,9.61 nM
3,B3,48.8 nM
4,B4,9.09 nM
5,B5,17.4 nM
6,B6,10.1 nM
7,B7,15.8 nM
8,B8,17.1 nM
9,B9,9.3 nM
10,B10,19.3 nM
11,B11,25.3 nM
12,B12,14.7 nM
13,B13,8.76 nM
14,B14,76 nM
15,B15,21.6 nM
16,B16,20.4 nM
17,B17,23.4 nM
18,B18,8.32 nM
19,B19,21 nM
20,B20,34.8 nM
21,B21,9.86 nM

row,Binder,Kd
1,B22,24.4 nM
2,B23,101 nM
3,B24,9.01 nM
4,B25,43.9 nM
5,B26,17.6 nM
6,B27,8.79 nM
7,B28,12.8 nM
8,B29,8.97 nM
9,B30,26.6 nM
10,B31,20.3 nM
11,B32,18.5 nM
12,B33,17.8 nM
13,B34,10.3 nM
14,B35,10.3 nM
15,B36,32.9 nM
16,B37,9.73 nM
17,B38,28.7 nM
18,B39,21.2 nM
19,B40,16.2 nM
20,B41,36.7 nM
21,B42,9.47 nM

row,Binder,Kd
1,B43,47.5 nM
2,B44,22.3 nM
3,B45,46 nM
4,B46,51.6 nM
5,B47,16.3 nM
6,B48,13.1 nM
7,B49,24.1 nM
8,B50,17.1 nM
9,B51,23.9 nM
10,B52,11.9 nM
11,B53,8.88 nM
12,B54,21.2 nM
13,B55,17.3 nM
14,B56,25.2 nM
15,B57,28 nM
16,B58,33.1 nM
17,B59,35.4 nM
18,B60,16.7 nM
19,B61,24.6 nM
